Results as given in the Human Domainome abundance scans (Beltran et al. 2025).
± gives the uncertainty stated by the source.

Test: abundance fitness (aPCA) (normalised: wild type 0, dead -1); higher = more abundant; growth selection in yeast, the domain comes from the species named
Conditions: Homo sapiens

Compared with “NEDD4-like E3 ubiquitin-protein ligase WWP2 G478S, O00308”, “NEDD4-like E3 ubiquitin-protein ligase WWP2 D464V, O00308” is lower in abundance fitness: 0.019 ± 0.033 for the first, -1.03 ± 0.061 for the second.

First: NEDD4-like E3 ubiquitin-protein ligase WWP2 D492W, O00308
Second: NEDD4-like E3 ubiquitin-protein ligase WWP2 G478P, O00308
The abundance fitness of the first is lower: -0.319 ± 0.033 for the first, -0.005 ± 0.052 for the second.

Compared with “NEDD4-like E3 ubiquitin-protein ligase WWP2 E457P, O00308”, “NEDD4-like E3 ubiquitin-protein ligase WWP2 T469M, O00308” is higher in abundance fitness: -0.5 ± 0.075 for the first, -0.096 ± 0.053 for the second.

Compared with “NEDD4-like E3 ubiquitin-protein ligase WWP2 I441H, O00308”, “NEDD4-like E3 ubiquitin-protein ligase WWP2 G489F, O00308” is higher in abundance fitness: -0.204 ± 0.065 for the first, -0.028 ± 0.078 for the second.

First: NEDD4-like E3 ubiquitin-protein ligase WWP2 Q485D, O00308
Second: NEDD4-like E3 ubiquitin-protein ligase WWP2 L446R, O00308
The abundance fitness of the first is higher: -0.003 ± 0.053 for the first, -0.901 ± 0.054 for the second.

“NEDD4-like E3 ubiquitin-protein ligase WWP2 G458W, O00308” and “NEDD4-like E3 ubiquitin-protein ligase WWP2 L446A, O00308” are within error of each other in abundance fitness: -0.461 ± 0.045 for the first, -0.4 ± 0.037 for the second.

“NEDD4-like E3 ubiquitin-protein ligase WWP2 Y491G, O00308” and “NEDD4-like E3 ubiquitin-protein ligase WWP2 P477G, O00308” are within error of each other in abundance fitness: 0.043 ± 0.04 for the first, -0.019 ± 0.031 for the second.

“NEDD4-like E3 ubiquitin-protein ligase WWP2 T467A, O00308” and “NEDD4-like E3 ubiquitin-protein ligase WWP2 Y491E, O00308” are within error of each other in abundance fitness: -0.098 ± 0.12 for the first, 0.033 ± 0.064 for the second.

“NEDD4-like E3 ubiquitin-protein ligase WWP2 R460H, O00308” and “NEDD4-like E3 ubiquitin-protein ligase WWP2 Y454I, O00308” are within error of each other in abundance fitness: -0.033 ± 0.081 for the first, -0.065 ± 0.062 for the second.

“NEDD4-like E3 ubiquitin-protein ligase WWP2 S456T, O00308” and “NEDD4-like E3 ubiquitin-protein ligase WWP2 Y454W, O00308” are within error of each other in abundance fitness: -0.04 ± 0.06 for the first, -0.056 ± 0.035 for the second.

First: NEDD4-like E3 ubiquitin-protein ligase WWP2 K484N, O00308
Second: NEDD4-like E3 ubiquitin-protein ligase WWP2 R476C, O00308
The abundance fitness of the first is higher: -0.056 ± 0.053 for the first, -0.198 ± 0.061 for the second.

First: NEDD4-like E3 ubiquitin-protein ligase WWP2 M452P, O00308
Second: NEDD4-like E3 ubiquitin-protein ligase WWP2 K473V, O00308
The abundance fitness of the first is lower: -0.337 ± 0.054 for the first, 0.112 ± 0.041 for the second.

Going from “NEDD4-like E3 ubiquitin-protein ligase WWP2 T483N, O00308” to “NEDD4-like E3 ubiquitin-protein ligase WWP2 D492K, O00308”, the abundance fitness rises from -0.247 ± 0.076 to 0.029 ± 0.074.

“NEDD4-like E3 ubiquitin-protein ligase WWP2 P488F, O00308” and “NEDD4-like E3 ubiquitin-protein ligase WWP2 I441C, O00308” are within error of each other in abundance fitness: -0.127 ± 0.064 for the first, -0.166 ± 0.078 for the second.

First: NEDD4-like E3 ubiquitin-protein ligase WWP2 N466Y, O00308
Second: NEDD4-like E3 ubiquitin-protein ligase WWP2 A445H, O00308
The abundance fitness of the first is lower: -0.366 ± 0.085 for the first, 0.069 ± 0.081 for the second.

Going from “NEDD4-like E3 ubiquitin-protein ligase WWP2 D464A, O00308” to “Heterogeneous nuclear ribonucleoprotein U-like protein 2 S13D, Q1KMD3”, the abundance fitness rises from -0.797 ± 0.036 to 0.114 ± 0.067.

“NEDD4-like E3 ubiquitin-protein ligase WWP2 E480M, O00308” and “NEDD4-like E3 ubiquitin-protein ligase WWP2 T483R, O00308” are within error of each other in abundance fitness: -0.058 ± 0.048 for the first, -0.121 ± 0.056 for the second.

“NEDD4-like E3 ubiquitin-protein ligase WWP2 K453M, O00308” and “NEDD4-like E3 ubiquitin-protein ligase WWP2 P444G, O00308” are within error of each other in abundance fitness: -0.006 ± 0.05 for the first, 0.089 ± 0.049 for the second.

First: NEDD4-like E3 ubiquitin-protein ligase WWP2 R493M, O00308
Second: NEDD4-like E3 ubiquitin-protein ligase WWP2 T469R, O00308
The abundance fitness of the first is higher: -0.083 ± 0.082 for the first, -0.243 ± 0.038 for the second.

Compared with “NEDD4-like E3 ubiquitin-protein ligase WWP2 G478A, O00308”, “NEDD4-like E3 ubiquitin-protein ligase WWP2 E457Y, O00308” is lower in abundance fitness: 0.035 ± 0.058 for the first, -0.216 ± 0.057 for the second.

“NEDD4-like E3 ubiquitin-protein ligase WWP2 P488Q, O00308” and “Transcription factor SOX-11 K85S, P35716” are within error of each other in abundance fitness: -0.028 ± 0.033 for the first, 0.026 ± 0.05 for the second.

Compared with “Transcription factor SOX-11 E69K, P35716”, “NEDD4-like E3 ubiquitin-protein ligase WWP2 S456L, O00308” is higher in abundance fitness: -0.57 ± 0.29 for the first, -0.169 ± 0.05 for the second.
